# Laboratory results reported in US6323185, “Anti-viral guanosine-rich oligonucleotides and method of treating HIV” (The United States of America as represented by the …).
# Key:
# [1] = molecular target: T1, HIV-1 reverse transcriptase (HIV-1 (BH10), UniProt P03366;P03366 P03366:600-1159,P03366:600-1039); assay: inhibition; gapped duplex DNA template; duplicate 10.0 uM; settings: intramolecular G4 (G-octet)
# [2] = molecular target: T1, HIV-1 reverse transcriptase; assay: inhibition; primed ribosomal RNA template; duplicate 0.36 uM; settings: intramolecular G4 (G-octet)
# [3] = molecular target: HIV-1 integrase wild-type (IN1-288) (HIV-1, UniProt P12497 P12497:1148-1435); assay: inhibition; 3'-processing; strand transfer 0.046 uM; Table D-1 79 nM / 49 nM; FIG. 30 55 nM; Mn; settings: intramolecular G4 (G-octet)
# [4] = molecular target: T1, HIV-1 reverse transcriptase; assay: inhibition; poly(rA).p(dT)12-18 template; duplicate 4.2 uM; settings: intramolecular G4 (G-octet)
# [5] = molecular target: HIV-1 integrase wild-type (IN1-288) (HIV-1, UniProt P12497 P12497:1148-1435); assay: UV crosslinking, about 39 kDa complex; not competed by excess T30177 added after preincubation; settings: label: 5'-32P
# CD4 = CD4 (UniProt P01730 P01730:26-396); assay: competition; ID50, oligo with immobilized CD4; settings: tags: immobilized, gp120 capture ELISA kit
# [6] = molecular target: T2, gp120 envelope glycoprotein (HIV-1, UniProt P04578 P04578:33-511); assay: competition; ID50, gp120/CD4 ELISA; PD oligos did not inhibit V3 Mab binding; settings: tags: gp120 capture ELISA kit
# [7] = molecular target: T2, gp120 envelope glycoprotein; assay: competition; ID50, inhibition of gp120 binding to CD4, oligo preincubated with gp120; settings: tags: gp120 capture ELISA kit
binder,measurement,setting,value
"GTGGTGGGTGGGTGGGT (ssDNA, PS at first and last internucleoside linkages, 3'-OH) [T30177 (AR177, Zintevir)]",IC50,[1],8 µM
same,IC50,[2],1.2 µM
same,IC50,[3],0.092 µM
same,IC50,[4],11 µM
HIV-1 U5 LTR 21-mer duplex (AE118/AE117) (dsDNA) DNA 1: GTGTGGAAAATCTCTAGCAGT DNA 2: ACTGCTAGAGATTTTCCACAC,binding result,[5],binds
"GTGGTGGGTGGGTGGGTGGTGGGTGGTGGTTGTGGGTGGGTGGTG (ssDNA, phosphodiester) [I100-07]",IC50,CD4,4.25 µM
same,IC50,[6],0.8 µM
"GTTGGGGGTTGTTGGTGGGGTGGTGG (ssDNA, phosphodiester) [I100-00]",IC50,[7],3.5 µM
same,IC50,CD4,18 µM
